Values joined by “and” are separate entries in the source; they are usually repeats but may differ in a detail not shown here. Equal entries are not always repeated.
Key:
[1] = molecular target: T1, RPS24 (Homo sapiens, UniProt P62847); test: Flag IP-MS of i53/i53-DM baits: prey RPS24; assay type: binding; settings: 293T Flp-In/T-Rex extracts, LC-MS/MS, one column per replicate IP
T1 construct: endogenous in cells; host or cells: HEK293 Flp-In/T-REx
Experimental: (§1) Following immunoprecipitation of Flag-tagged i53 and i-53-DM from HEK293 Flp-In/T-REx cells, peptides were identified using LC-MS/MS. Proteins were digested in solution with trypsin (Sigma, T7575-1KT) and dried to completeness. For LC-MS/MS analysis, peptides were reconstituted in 5% formic acid and loaded onto a 12-15 cm fused silica column with pulled tip packed in-house with 3.5 μm Zorbax C18 (Agilent Technologies, Calif., USA).
(§2) i53 and i53-DM precipitates were analyzed using an LTQ (Thermo Scientific) coupled to an Agilent 1100 Series HPLC (Agilent Technologies). Peptides were eluted from the column using a 90 min period cycle with a linear gradient from 0% to 40% ACN in 0.1% formic acid. Tandem MS spectra were acquired in a data-dependent mode for the top 5 (LTQ) most abundant ions using collision-induced dissociation. Acquired spectra were searched against the human Refseq_V53 database using Mascot (Matrix Science).
(§3) 293T Flp-In/T-Rex cell lines were generated that expressed Flag-tagged i53 or i53-DM under the control of a tetracycline-inducible promoter as previously described. Nine IP-MS experiments were analyzed (3 biological replicate IPs each for control i53- and i53-DM expressing cell lines). The interacting proteins were identified by MASCOT to identify high-confidence interactors for i53. […]

[2] = molecular target: T2, KDM5B (Homo sapiens, UniProt Q9UGL1); test: Flag IP-MS of i53/i53-DM baits: prey KDM5B; assay type: binding; settings: 293T Flp-In/T-Rex extracts, LC-MS/MS, one column per replicate IP
T2 construct: endogenous in cells; host or cells: HEK293 Flp-In/T-REx
T2 sequence (Q9UGL1 whole entry): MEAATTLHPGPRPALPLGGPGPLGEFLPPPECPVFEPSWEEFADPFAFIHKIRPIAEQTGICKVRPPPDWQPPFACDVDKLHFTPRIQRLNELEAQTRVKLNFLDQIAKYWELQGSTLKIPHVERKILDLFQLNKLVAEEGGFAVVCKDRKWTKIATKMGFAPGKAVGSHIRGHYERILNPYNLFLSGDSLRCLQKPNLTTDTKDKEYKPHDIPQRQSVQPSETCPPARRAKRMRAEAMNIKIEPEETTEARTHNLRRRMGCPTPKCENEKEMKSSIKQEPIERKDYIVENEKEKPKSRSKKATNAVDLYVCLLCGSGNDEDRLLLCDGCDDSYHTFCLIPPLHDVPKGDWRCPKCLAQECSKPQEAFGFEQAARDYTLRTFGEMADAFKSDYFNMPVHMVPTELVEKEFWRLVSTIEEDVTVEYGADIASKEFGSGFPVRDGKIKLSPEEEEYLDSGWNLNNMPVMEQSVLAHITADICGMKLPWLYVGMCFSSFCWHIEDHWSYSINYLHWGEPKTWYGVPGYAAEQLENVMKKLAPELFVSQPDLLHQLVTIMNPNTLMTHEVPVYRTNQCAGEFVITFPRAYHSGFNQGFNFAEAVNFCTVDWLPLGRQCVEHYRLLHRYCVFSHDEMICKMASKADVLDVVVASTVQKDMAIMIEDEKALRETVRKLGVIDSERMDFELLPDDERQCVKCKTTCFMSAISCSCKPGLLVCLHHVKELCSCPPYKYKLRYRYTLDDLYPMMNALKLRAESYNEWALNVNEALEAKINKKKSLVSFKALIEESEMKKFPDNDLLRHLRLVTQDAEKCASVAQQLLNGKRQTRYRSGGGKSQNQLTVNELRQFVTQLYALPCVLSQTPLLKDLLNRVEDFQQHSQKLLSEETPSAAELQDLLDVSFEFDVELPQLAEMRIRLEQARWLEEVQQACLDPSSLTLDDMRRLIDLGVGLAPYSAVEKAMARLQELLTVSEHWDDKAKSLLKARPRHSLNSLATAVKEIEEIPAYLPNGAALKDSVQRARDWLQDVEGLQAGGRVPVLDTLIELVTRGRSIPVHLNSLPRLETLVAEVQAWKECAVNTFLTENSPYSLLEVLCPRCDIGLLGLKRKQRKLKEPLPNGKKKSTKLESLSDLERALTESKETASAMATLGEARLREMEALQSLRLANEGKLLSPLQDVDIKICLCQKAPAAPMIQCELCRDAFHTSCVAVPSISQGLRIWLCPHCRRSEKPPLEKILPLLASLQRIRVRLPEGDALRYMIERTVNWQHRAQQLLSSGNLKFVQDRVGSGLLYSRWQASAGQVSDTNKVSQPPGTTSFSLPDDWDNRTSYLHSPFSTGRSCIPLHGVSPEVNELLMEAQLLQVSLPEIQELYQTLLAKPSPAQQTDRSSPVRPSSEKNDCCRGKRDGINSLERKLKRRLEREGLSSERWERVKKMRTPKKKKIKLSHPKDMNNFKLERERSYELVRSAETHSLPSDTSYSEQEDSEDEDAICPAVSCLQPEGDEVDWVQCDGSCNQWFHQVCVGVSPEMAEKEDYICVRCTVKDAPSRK
Experimental: as §1, §2, §3

[3] = molecular target: T3, MYCBP (Homo sapiens, UniProt Q99417); test: Flag IP-MS of i53/i53-DM baits: prey MYCBP; assay type: binding; settings: 293T Flp-In/T-Rex extracts, LC-MS/MS, one column per replicate IP, listed as Flag-i53-DM
T3 construct: endogenous in cells; host or cells: HEK293 Flp-In/T-REx
T3 sequence (Q99417 1-103): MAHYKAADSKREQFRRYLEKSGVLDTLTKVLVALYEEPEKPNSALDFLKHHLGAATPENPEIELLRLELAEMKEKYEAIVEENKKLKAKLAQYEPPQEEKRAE
Experimental: as §1, §2, §3

[4] = molecular target: T4, FMR1 (Homo sapiens, UniProt Q06787); test: Flag IP-MS of i53/i53-DM baits: prey FMR1; assay type: binding; settings: 293T Flp-In/T-Rex extracts, LC-MS/MS, one column per replicate IP
T4 construct: endogenous in cells; host or cells: HEK293 Flp-In/T-REx cells
Experimental: as §1, §2, §3

[5] = molecular target: T5, TTC12 (Homo sapiens, UniProt Q9H892); test: Flag IP-MS of i53/i53-DM baits: prey TTC12; assay type: binding; settings: 293T Flp-In/T-Rex extracts, LC-MS/MS, one column per replicate IP
T5 construct: endogenous in cells; host or cells: HEK293 Flp-In/T-REx cells
T5 sequence (Q9H892 1-705): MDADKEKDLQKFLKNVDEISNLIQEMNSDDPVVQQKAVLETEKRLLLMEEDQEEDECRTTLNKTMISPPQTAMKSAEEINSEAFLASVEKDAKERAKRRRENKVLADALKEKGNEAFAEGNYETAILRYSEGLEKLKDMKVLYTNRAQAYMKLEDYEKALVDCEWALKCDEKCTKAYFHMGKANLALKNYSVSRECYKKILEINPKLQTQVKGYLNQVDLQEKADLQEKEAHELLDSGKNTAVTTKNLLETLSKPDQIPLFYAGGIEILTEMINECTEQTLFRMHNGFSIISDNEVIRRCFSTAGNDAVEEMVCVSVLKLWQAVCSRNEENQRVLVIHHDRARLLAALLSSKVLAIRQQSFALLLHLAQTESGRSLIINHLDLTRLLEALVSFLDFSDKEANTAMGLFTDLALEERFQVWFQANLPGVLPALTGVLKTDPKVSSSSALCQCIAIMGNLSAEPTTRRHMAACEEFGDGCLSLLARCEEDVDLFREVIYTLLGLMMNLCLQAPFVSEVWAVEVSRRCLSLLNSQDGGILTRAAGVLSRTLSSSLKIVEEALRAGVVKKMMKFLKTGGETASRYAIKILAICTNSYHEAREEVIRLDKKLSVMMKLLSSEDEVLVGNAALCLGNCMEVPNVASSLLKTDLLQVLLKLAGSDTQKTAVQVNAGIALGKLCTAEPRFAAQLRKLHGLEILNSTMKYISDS
Experimental: as §1, §2, §3

[6] = system: γ-H2AX focus formation in U2OS cells; test: Ionizing radiation focus formation, γ-H2AX (immunofluorescence); assay type: cell-based; settings: transfected U2OS cells, 10 Gy, 1 h post-irradiation
Experimental: FIG. 3. The i53 protein inhibits 53BP1. FIG. 3A-B, U2OS cells were transfected with vectors expressing i53, its 53BP1-binding deficient mutant (DM) or an empty vector (EV) control. Cells were then X-irradiated with a 10 Gy dose and processed for immunofluorescence with the indicated antibodies 1 h post-irradiation (IR). DAPI staining (not shown) was used to delineate the outline (dashed lines) of the cell nuclei. The region in the magnified inset is indicated with a square. Quantitation of the experiment is shown in panel (a) and data is indicated as the mean±s.e.m (N=3), whereas in (b) representative micrographs are shown. Arrowheads indicate Flag-positive cells. FIG. 3C, Parental or 53BP1ΔU2OS cells transfected with vectors expressing i53, the DM mutant or an empty vector (EV) control were irradiated (10 Gy) 1 h before being processed for immunofluorescence. Cell cycle stage was assessed by Cyclin A staining. The data is presented as the mean±s.e.m.; N=3. FIG. 3D, Immunoprecipitation (IP) of Flag-tagged proteins from extracts prepared from 293T cells transfected with vectors expressing Flag-i53 or the i53-DM mutant. Proteins were separated by SDS-PAGE and immunoblotted (IB) for Flag and 53BP1. […]

[7] = molecular target: T6, 53BP1 (Homo sapiens, UniProt Q12888); test: Flag co-immunoprecipitation from 293T cells; assay type: binding; settings: Flag IP from transfected 293T cell extracts, immunoblot
T6 construct: endogenous in cells; host or cells: 293T
T6 sequence (Q12888 whole entry): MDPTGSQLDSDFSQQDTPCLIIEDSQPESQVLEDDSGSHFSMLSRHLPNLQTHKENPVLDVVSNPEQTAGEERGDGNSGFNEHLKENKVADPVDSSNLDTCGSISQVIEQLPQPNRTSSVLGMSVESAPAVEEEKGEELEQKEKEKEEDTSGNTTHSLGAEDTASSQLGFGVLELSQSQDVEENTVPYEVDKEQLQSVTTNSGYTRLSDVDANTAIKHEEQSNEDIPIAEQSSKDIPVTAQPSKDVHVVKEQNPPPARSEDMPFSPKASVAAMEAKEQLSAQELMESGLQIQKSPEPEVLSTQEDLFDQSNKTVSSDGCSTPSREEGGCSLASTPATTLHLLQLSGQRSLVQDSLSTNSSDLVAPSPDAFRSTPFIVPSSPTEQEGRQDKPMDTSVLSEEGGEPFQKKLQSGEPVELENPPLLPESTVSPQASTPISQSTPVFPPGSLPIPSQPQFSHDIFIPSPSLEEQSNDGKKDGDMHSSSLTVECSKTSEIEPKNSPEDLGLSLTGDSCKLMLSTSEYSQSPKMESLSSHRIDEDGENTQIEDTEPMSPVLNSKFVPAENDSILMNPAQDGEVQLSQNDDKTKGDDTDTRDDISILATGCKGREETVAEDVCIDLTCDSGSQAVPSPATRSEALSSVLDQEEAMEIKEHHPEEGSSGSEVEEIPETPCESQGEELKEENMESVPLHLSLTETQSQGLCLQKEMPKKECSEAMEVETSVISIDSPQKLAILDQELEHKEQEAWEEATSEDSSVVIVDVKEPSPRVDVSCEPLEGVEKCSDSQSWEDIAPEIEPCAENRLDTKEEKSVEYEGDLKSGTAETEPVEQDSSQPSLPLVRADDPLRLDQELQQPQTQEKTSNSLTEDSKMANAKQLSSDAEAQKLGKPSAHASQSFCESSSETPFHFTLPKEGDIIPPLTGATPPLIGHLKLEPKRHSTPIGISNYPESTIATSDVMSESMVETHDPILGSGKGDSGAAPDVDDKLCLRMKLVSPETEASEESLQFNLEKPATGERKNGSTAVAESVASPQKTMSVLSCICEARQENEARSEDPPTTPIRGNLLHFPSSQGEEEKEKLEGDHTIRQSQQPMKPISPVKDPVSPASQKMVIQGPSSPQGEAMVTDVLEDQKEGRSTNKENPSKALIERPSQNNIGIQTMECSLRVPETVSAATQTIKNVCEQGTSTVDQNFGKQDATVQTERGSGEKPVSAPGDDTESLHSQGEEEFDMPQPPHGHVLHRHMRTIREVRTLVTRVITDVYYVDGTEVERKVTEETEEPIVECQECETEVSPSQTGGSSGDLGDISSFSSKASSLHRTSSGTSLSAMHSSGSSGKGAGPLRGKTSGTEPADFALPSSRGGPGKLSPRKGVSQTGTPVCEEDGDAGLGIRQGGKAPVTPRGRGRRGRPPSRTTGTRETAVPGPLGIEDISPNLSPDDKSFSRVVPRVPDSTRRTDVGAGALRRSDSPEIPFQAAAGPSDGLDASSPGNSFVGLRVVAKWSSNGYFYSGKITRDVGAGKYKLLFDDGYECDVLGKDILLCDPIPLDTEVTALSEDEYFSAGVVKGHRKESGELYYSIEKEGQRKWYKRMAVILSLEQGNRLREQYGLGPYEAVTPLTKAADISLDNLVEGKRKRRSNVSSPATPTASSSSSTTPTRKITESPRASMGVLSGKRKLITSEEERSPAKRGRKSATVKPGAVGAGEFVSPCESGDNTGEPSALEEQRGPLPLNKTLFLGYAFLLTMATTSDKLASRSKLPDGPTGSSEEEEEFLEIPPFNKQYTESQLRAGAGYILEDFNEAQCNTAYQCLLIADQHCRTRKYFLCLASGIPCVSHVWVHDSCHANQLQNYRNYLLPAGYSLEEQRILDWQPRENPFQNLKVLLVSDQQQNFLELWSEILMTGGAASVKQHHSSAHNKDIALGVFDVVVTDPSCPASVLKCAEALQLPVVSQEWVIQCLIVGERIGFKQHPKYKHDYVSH
Experimental: FIG. 3. The i53 protein inhibits 53BP1. FIG. 3A-B, U2OS cells were transfected with vectors expressing i53, its 53BP1-binding deficient mutant (DM) or an empty vector (EV) control. Cells were then X-irradiated with a 10 Gy dose and processed for immunofluorescence with the indicated antibodies 1 h post-irradiation (IR). DAPI staining (not shown) was used to delineate the outline (dashed lines) of the cell nuclei. The region in the magnified inset is indicated with a square. Quantitation of the experiment is shown in panel (a) and data is indicated as the mean±s.e.m (N=3), whereas in (b) representative micrographs are shown. Arrowheads indicate Flag-positive cells. FIG. 3C, Parental or 53BP1ΔU2OS cells transfected with vectors expressing i53, the DM mutant or an empty vector (EV) control were irradiated (10 Gy) 1 h before being processed for immunofluorescence. Cell cycle stage was assessed by Cyclin A staining. The data is presented as the mean±s.e.m.; N=3. FIG. 3D, Immunoprecipitation (IP) of Flag-tagged proteins from extracts prepared from 293T cells transfected with vectors expressing Flag-i53 or the i53-DM mutant. Proteins were separated by SDS-PAGE and immunoblotted (IB) for Flag and 53BP1.
293T cells were transfected with 10 μg of pcDNA3-Flag-i53-derived plasmids using polyethylenimine (PEI). […]

Substance	Total peptides, RPS24 [1]	Total peptides, KDM5B [2]	Total peptides, MYCBP [3]	Total peptides, FMR1 [4]	Total peptides, TTC12 [5]	γ-H2AX focus formation [6]	Retrieval of 53BP1 in co-immunoprecipitation [7]
i53-DM: 53BP1-binding deficient mutant of i53 (P69L, L70V)	4	3	7 and 5	6	3		
i53: UbvG08 with C-terminal di-glycine removed and I44A mutation; genetically encoded inhibitor of 53BP1						did not impact	efficiently retrieved 53BP1
